Assay results as given in EP4814014A1, “BINDING MOLECULE AND ANTIBODY-DRUG CONJUGATE AND USE THEREOF” (priority 2023, dated 2025).
Where a chain is given by its changes, count along the chain named. Names may count otherwise.

Key:
[1] = target: T1, Human EGFR antigen (SPR of Example 4.4) (human, UniProt P00533 25-645); assay: SPR method I, antigen on CM5 chip, VHH-His injected, 1:1 model
[2] = target: T2, Cyno EGFR antigen (SPR of Example 4.4) (cynomolgus monkey, UniProt A0A2K5WK39 25-645); assay: as above
human EGFR on cells [3] = target: T3, human EGFR on cells (human, UniProt P00533 25-1210); assay: FACS, VHH-His on MDA-MB-468 cells
T3 construct: whole, on cells; the cell line is named under assay; also called CHO-S-EGFR; CHOK1-huEGFR

human EGFR on cells [4] = target: T3, human EGFR on cells; assay: FACS, VHH-His on CHOK1-huEGFR cells
human cMet on cells [5] = target: T4, human cMet on cells (human, UniProt P08581 25-1390); assay: FACS, VHH-His on MKN45 cells
T4 construct: whole, on cells; Cell lines: CHO-S-cMet, CHOK1-hucMet, EBC-1, MKN45, NCI-H1975; the cell line is named under assay; also called CHO-S-cMet; CHOK1-hucMet
T4 sequence (P08581 25-1390): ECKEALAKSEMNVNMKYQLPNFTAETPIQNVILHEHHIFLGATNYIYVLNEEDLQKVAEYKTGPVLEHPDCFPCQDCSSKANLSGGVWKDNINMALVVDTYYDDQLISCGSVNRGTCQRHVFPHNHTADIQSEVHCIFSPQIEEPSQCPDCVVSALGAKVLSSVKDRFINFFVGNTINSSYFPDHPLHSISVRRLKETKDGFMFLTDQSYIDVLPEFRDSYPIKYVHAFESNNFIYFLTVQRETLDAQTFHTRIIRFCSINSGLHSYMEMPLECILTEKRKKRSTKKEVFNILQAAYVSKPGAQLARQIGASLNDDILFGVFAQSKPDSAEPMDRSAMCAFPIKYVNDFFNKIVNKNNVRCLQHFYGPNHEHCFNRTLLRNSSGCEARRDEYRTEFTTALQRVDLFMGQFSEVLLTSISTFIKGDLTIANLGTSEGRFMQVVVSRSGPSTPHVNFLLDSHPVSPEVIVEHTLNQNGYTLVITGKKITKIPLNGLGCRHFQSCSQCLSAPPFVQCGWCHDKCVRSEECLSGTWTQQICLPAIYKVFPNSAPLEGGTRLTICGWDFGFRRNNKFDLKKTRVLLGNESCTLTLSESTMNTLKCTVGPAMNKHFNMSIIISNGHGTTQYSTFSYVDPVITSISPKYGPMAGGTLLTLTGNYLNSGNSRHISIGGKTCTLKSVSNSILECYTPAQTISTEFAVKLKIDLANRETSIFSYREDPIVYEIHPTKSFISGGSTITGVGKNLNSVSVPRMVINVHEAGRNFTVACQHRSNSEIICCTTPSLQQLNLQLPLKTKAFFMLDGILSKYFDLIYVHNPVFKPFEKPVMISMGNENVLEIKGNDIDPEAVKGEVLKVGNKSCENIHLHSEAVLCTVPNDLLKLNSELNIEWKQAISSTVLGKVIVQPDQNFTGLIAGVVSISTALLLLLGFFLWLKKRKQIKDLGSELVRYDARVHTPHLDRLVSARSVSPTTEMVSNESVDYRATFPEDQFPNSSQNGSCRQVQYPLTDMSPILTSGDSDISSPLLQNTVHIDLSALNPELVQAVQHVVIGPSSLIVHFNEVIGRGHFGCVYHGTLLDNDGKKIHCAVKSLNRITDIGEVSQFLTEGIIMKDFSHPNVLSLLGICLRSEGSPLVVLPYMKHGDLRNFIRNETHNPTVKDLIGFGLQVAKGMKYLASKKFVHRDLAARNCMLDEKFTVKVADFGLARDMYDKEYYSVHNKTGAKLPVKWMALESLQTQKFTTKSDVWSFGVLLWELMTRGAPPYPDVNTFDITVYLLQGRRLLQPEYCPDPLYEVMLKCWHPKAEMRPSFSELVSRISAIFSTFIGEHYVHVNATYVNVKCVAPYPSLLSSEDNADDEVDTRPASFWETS

human cMet on cells [6] = target: T4, human cMet on cells; assay: FACS, VHH-His on MKN45 cells; remark: listed apart in the source
human cMet on cells [7] = target: T4, human cMet on cells; assay: FACS competition on EBC-1 cells, HGF-His as the ligand detected, VHH-Fc from 100 nM
[8] = target: T5, Cynomolgus monkey cMet antigen (cynomolgus monkey, UniProt A0A2K5UM36 25-932); assay: ELISA, antigen coated at 1 ug/mL, VHH-Fc titrated
T5 construct: treated as one molecule; also called cynomolgus monkey cMet-His antigen; Cyno cMet
T5 sequence (A0A2K5UM36 entry or part of it limits assumed, form in doubt): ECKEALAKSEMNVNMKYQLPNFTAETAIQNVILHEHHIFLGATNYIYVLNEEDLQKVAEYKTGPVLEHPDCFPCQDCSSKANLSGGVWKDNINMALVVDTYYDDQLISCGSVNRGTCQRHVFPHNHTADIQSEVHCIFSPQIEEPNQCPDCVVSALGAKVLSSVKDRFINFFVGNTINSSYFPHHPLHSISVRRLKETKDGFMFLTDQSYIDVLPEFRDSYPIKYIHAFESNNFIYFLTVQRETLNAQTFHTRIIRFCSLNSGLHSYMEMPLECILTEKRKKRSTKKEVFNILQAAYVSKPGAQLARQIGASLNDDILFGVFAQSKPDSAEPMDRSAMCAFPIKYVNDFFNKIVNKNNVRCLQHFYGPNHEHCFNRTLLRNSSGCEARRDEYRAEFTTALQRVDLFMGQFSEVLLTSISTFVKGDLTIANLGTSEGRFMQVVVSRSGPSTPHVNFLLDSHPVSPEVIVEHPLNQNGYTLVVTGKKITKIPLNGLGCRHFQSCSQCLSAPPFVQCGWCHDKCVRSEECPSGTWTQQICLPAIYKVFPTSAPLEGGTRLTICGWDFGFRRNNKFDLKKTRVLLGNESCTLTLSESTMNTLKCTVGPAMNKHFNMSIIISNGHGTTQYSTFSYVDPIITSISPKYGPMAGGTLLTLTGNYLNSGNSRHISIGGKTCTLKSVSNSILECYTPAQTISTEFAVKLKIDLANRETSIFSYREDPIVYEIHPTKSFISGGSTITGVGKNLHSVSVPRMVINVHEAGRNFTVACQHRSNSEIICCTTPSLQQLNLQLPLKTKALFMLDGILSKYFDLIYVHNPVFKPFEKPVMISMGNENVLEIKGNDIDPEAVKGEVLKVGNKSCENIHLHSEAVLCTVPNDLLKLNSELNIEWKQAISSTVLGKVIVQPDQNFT

Human cMet antigen [9] = target: T6, Human cMet antigen (human, UniProt P08581 25-932); assay: ELISA, antigen coated at 1 ug/mL, VHH-Fc titrated
T6 construct: treated as one molecule; also called Human cMet-His antigen
T6 sequence (P08581 25-932): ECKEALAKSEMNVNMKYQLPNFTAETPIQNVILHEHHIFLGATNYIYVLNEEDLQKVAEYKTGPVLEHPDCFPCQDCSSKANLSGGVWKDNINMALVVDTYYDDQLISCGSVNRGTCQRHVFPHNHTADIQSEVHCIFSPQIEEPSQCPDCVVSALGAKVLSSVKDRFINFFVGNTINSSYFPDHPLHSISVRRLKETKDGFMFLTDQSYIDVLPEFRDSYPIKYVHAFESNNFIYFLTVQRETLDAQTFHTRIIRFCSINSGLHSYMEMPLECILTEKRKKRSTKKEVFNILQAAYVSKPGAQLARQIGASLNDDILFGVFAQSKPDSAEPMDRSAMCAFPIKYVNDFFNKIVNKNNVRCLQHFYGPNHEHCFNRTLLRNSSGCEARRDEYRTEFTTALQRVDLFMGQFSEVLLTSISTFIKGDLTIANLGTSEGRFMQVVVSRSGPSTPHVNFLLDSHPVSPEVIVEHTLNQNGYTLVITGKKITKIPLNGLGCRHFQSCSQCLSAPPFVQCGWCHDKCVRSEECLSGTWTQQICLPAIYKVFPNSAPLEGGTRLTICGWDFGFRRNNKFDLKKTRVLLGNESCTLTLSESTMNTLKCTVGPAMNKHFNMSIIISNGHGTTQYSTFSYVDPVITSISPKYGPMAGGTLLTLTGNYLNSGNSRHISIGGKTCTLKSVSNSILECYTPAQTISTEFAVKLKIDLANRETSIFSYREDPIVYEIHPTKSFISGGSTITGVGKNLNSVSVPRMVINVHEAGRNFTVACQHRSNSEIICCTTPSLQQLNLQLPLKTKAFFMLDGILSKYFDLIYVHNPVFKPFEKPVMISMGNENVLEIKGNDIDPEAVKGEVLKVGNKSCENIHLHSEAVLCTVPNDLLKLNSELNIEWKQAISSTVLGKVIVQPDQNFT

human cMet on cells [10] = target: T4, human cMet on cells; assay: FACS on EBC-1 cells
human cMet on cells [11] = target: T4, human cMet on cells; assay: FACS, VHH-His on CHOK1-hucMet cells
human cMet on cells [12] = target: T4, human cMet on cells; assay: FACS, VHH-His on CHOK1-hucMet cells; remark: listed apart in the source
[13] = target: T5, Cynomolgus monkey cMet antigen; assay: SPR method I, antigen on CM5 chip, VHH-His injected, 1:1 model
Human cMet antigen [14] = target: T6, Human cMet antigen; assay: as above
human cMet on cells [15] = target: T4, human cMet on cells; assay: FACS, VHH-His on MKN45 cells; remark: listed apart in the source
human cMet on cells [16] = target: T4, human cMet on cells; assay: FACS, VHH-His on EBC-1 cells
human cMet on cells [17] = target: T4, human cMet on cells; assay: FACS, VHH-His on EBC-1 cells (cell column empty in this row)
[18] = target: T5, Cynomolgus monkey cMet antigen; assay: SPR method II, antibody captured on Protein A chip, antigen injected, 1:1 model
Human cMet antigen [19] = target: T6, Human cMet antigen; assay: as above
[20] = target: T1, Human EGFR antigen (SPR of Example 4.4); assay: as above
[21] = target: T2, Cyno EGFR antigen (SPR of Example 4.4); assay: as above

B1: V-n10A1 anti-EGFR VHH-His (VHH, not shown: small tags and cut ends)
VHH: QVQLVESGGGLVQAGGSLRLSCAASGRTGSLHAMGWFRQAPGKERERVATLNLSDGSAVTADSVKGRFTISTDNTKNSVYLQMNSLKPEDTAVYYCTASRSPSGIRYYKPDYWGQGTQVTVSS
notes: Monovalent parent VHH
Kd [1]: 37.4 nM
koff [1]: 0.0258 s⁻¹
kon [1]: 691000 M⁻¹ s⁻¹
Kd [2]: 17.2 nM
koff [2]: 0.01 s⁻¹
kon [2]: 581000 M⁻¹ s⁻¹
Maximum MFI value (human EGFR on cells [3]): 5830 MFI
Maximum MFI value (human EGFR on cells [3]; record 2): 5160 MFI
Maximum MFI value (human EGFR on cells [4]): 2760 MFI

B2: 7A12-M2 (VHH, not shown: small tags and cut ends)
VHH: EVQLVESGGGLIQPGGSLRLSCKASGNIFSSNHMGWFRQAPGKQLEWVAYITTREITNYADSVKGRFTISRDNSKNTVYLQMNNLRSEDTAVYYCIADQSREIRRSWGQGTLVTVSS
Maximum MFI value (human cMet on cells [5]): 36700 MFI

B3: 7A12-M1 (VHH, not shown: small tags and cut ends)
VHH: B2 VHH with I12V, K23A, F37V, Q44G, N84S, S87A
notes: Humanized anti-cMet VHH-His
EC50 (human cMet on cells [6]): 88.1 nM
Maximum MFI value (human cMet on cells [6]): 56600 MFI

B4: V-n7A12 anti-cMet VHH-Fc (Fc fusion, not shown: a dimerising Fc or GST)
chain: EVQLVESGGGLVQAGGSLRLSCVASGNIFSSNHMGWFRQAPGKQREFIAYITTREITNYADSVKGRFTISRDNTKNTVYLQMNVLKPEDTAVYYCIADQSREIRRSWGQGTQVTVSS
notes: Bivalent VHH-Fc
MFI value at the highest concentration (human cMet on cells [7]): 40600 MFI
ratio of MFI value at the highest concentration to that at the lowest concentration (human cMet on cells [7]): 2.22
EC50 [8]: 0.063 nM
EC50 (Human cMet antigen [9]): 0.066 nM

B5: anti-cMet biepitopic M-1 molecule (bispecific antibody, V domains shown)
V domain 1: QSQLAESGGGLVQSGGSLGLSCVASGFTISRSIMSWYRQPPGKERDWVASIGSAGNTNYVDSVKGRFTISRDVAKNTVYLQMNSLKPEDTAVYYCKTTLAVSFSEYWGQGTQVTVSS
V domain 2: B2 VHH with P14A, K23T, N32Y, L45R, W47F, V48I
notes: Asymmetric double-chain form
binding result (human cMet on cells [10]): binds

B6: 7A12-M3 (VHH, not shown: small tags and cut ends)
VHH: B2 VHH with K23T, V48I, L112Q
Maximum MFI value (human cMet on cells [5]): 57400 MFI

B7: 7A12-M4 (VHH, not shown: small tags and cut ends)
VHH: B2 VHH with P14A, K23T, L45R, W47F, V48I
notes: Humanized anti-cMet VHH-His
EC50 (human cMet on cells [6]): 4.11 nM
Maximum MFI value (human cMet on cells [6]): 44700 MFI

B8: dpzn7A12m4.m1_1 (VHH, not shown: small tags and cut ends)
VHH: B2 VHH with P14A, K23T, N32Y, L45R, W47F, V48I, V78L, N84S, S87A
notes: Humanized + PTM removal + primary immunogenicity removal, anti-cMet VHH-His
EC50 (human cMet on cells [11]): 0.716 nM
Maximum MFI value (human cMet on cells [11]): 73900 MFI

B9: dpzn7A12m4.m1_3 (VHH, not shown: small tags and cut ends)
VHH: B4 chain with V12I, V23T, N32Y, T74A, V84S, K86R, Q112L
notes: as for B8
EC50 (human cMet on cells [11]): 0.809 nM
Maximum MFI value (human cMet on cells [11]): 63400 MFI

B10: dpzn7A12m4.ml_1.m1 (VHH, not shown: small tags and cut ends)
VHH: B2 VHH with I12V, K23T, N32Y, L45R, W47F, V48I, V78L, N84S, S87A
notes: Humanized + PTM removal + secondary immunogenicity removal, anti-cMet VHH-His; also called hu7A12
EC50 (human cMet on cells [12]): 2.1 nM

B11: V-n7A12 anti-cMet VHH-His (VHH, not shown: small tags and cut ends)
VHH: B4 chain
notes: Monovalent parent VHH
Kd [13]: 96 nM
koff [13]: 0.00439 s⁻¹
kon [13]: 45800 M⁻¹ s⁻¹
Kd (Human cMet antigen [14]): 0.301 nM
koff (Human cMet antigen [14]): 0.000153 s⁻¹
kon (Human cMet antigen [14]): 509000 M⁻¹ s⁻¹
EC50 (human cMet on cells [6]): 3.76 nM
Maximum MFI value (human cMet on cells [6]): 35600 MFI
EC50 (human cMet on cells [11]): 1.01 nM
Maximum MFI value (human cMet on cells [11]): 74200 MFI
EC50 (human cMet on cells [15]): 3.76 nM
Maximum MFI value (human cMet on cells [15]): 35600 MFI
EC50 (human cMet on cells [12]): 1.94 nM

B12: pn7A12.N32X.m6 (VHH, not shown: small tags and cut ends)
VHH: B4 chain with N32D
notes: PTM-removal anti-cMet VHH-His
EC50 (human cMet on cells [15]): 4.45 nM
Maximum MFI value (human cMet on cells [15]): 44700 MFI

B13: V-n5B10 anti-EGFR VHH-His (VHH, not shown: small tags and cut ends)
VHH: AVQLVDSGGGLVQPGGSLRLDCSASGTIIGTYTMAWYRQAPGKQREMVAIITPGGGSHHADSVKGRFTISRDNGKSTVYLQMSSLKFEDTAVYYCNAKARWGTTEYWGQGTQVTVSS
notes: Monovalent parent VHH
Kd [1]: 23.2 nM
koff [1]: 0.00536 s⁻¹
kon [1]: 232000 M⁻¹ s⁻¹
Kd [2]: 7.36 nM
koff [2]: 0.00384 s⁻¹
kon [2]: 522000 M⁻¹ s⁻¹
EC50 (human EGFR on cells [3]): 15 nM
Maximum MFI value (human EGFR on cells [3]): 111000 MFI

B14: VHH10 (VHH, not shown: small tags and cut ends)
VHH: QSQLVESGGGLVKPGGSLRLSCVASGFTISRSIMSWYRQAPGKERDWVASIGSAGNTNYVDSVKGRFTISRDNAKNSLYLQMNSLRAEDTAVYYCKTTLAVSFSEYWGQGTLVTVSS
notes: Humanized 9A2 anti-cMet VHH-His; also called hu9A2
EC50 (human cMet on cells [16]): 1.63 nM
Maximum MFI value (human cMet on cells [16]): 233000 MFI

B15: VHH9 (VHH, not shown: small tags and cut ends)
VHH: B14 VHH with Q1E, V5L, K13Q, N73V, A74S, S77T
notes: Humanized 9A2 anti-cMet VHH-His
EC50 (human cMet on cells [16]): 1.63 nM
Maximum MFI value (human cMet on cells [16]): 194000 MFI

B16: VHH11 (VHH, not shown: small tags and cut ends)
VHH: B14 VHH with A40P
notes: as for B15
EC50 (human cMet on cells [17]): 2.11 nM

B17: V-n9A2 anti-cMet VHH-His (VHH, not shown: small tags and cut ends)
VHH: B5 V domain 1
notes: Monovalent parent VHH
Kd [13]: 70.3 nM
koff [13]: 0.0072 s⁻¹
kon [13]: 102000 M⁻¹ s⁻¹
Kd (Human cMet antigen [14]): 16 nM
koff (Human cMet antigen [14]): 0.0029 s⁻¹
kon (Human cMet antigen [14]): 181000 M⁻¹ s⁻¹
EC50 (human cMet on cells [16]): 1.56 nM
Maximum MFI value (human cMet on cells [16]): 291000 MFI

B18: VHH8 (VHH, not shown: small tags and cut ends)
VHH: B14 VHH with Q1E, V5L, K13Q, A74S, S77T, L78V
notes: as for B15
EC50 (human cMet on cells [16]): 2.5 nM
Maximum MFI value (human cMet on cells [16]): 143000 MFI

B19: V-n9A2 anti-cMet VHH-Fc (Fc fusion, not shown: a dimerising Fc or GST)
chain: B5 V domain 1
notes: Bivalent VHH-Fc
MFI value at the highest concentration (human cMet on cells [7]): 82200 MFI
ratio of MFI value at the highest concentration to that at the lowest concentration (human cMet on cells [7]): 1.12
EC50 [8]: 0.105 nM
EC50 (Human cMet antigen [9]): 0.108 nM

B20: Reference benchmark antibody ABT-700 (antibody, V domains shown)
VH: QVQLVQSGAEVKKPGASVKVSCKASGYIFTAYTMHWVRQAPGQGLEWMGWIKPNNGLANYAQKFQGRVTMTRDTSISTAYMELSRLRSDDTAVYYCARSEITTEFDYWGQGTLVTVSS
VL: DIVMTQSPDSLAVSLGERATINCKSSESVDSYANSFLHWYQQKPGQPPKLLIYRASTRESGVPDRFSGSGSGTDFTLTISSLQAEDVAVYYCQQSKEDPLTFGGGTKVEIKR
Kd [18]: 0.584 nM
koff [18]: 7.14e-05 s⁻¹
kon [18]: 122000 M⁻¹ s⁻¹
Kd (Human cMet antigen [19]): 0.681 nM
koff (Human cMet antigen [19]): 7.38e-05 s⁻¹
kon (Human cMet antigen [19]): 108000 M⁻¹ s⁻¹

B21: V-n9A10 anti-cMet VHH-Fc (Fc fusion, not shown: a dimerising Fc or GST)
chain: QVQLVESGGGLVQPGGSLRLSCEASGFTFSSYVMSWYRQAPGKERELVALISSTTGSSTKYGDSVKGRFTISRDNAKNTVYLQMNSLKPEDTAVYYCNAMIGWNNHWGQGTHVTVSS
MFI value at the highest concentration (human cMet on cells [7]): 77200 MFI
ratio of MFI value at the highest concentration to that at the lowest concentration (human cMet on cells [7]): 1.14

B22: V-F42 (hu9B8_Fc)2 (Fc fusion, not shown: a dimerising Fc or GST)
chain: EVQLLESGGGLVQPGGSLRLSCAASGLTFSYYAMAWFRQAPGKEREFVAAINWNQGNTYNTDSVKGRFTISRDNSKNTVYLQMNSLTPEDTAVYYCAVRYNQASYLVARSSDYNYWGQGTLVTVSS
notes: dimeric VHH with an Fc tag at the C-terminus
Kd [20]: 11.9 nM
koff [20]: 0.000392 s⁻¹
kon [20]: 33000 M⁻¹ s⁻¹
Kd [21]: 2.05 nM
koff [21]: 8.04e-05 s⁻¹
kon [21]: 39200 M⁻¹ s⁻¹
